From patent US20030148460 come the findings set out here.

One series has as its target uteroferrin (UniProt P09889).
Chain of UniProt P09889 (P09889 22-340): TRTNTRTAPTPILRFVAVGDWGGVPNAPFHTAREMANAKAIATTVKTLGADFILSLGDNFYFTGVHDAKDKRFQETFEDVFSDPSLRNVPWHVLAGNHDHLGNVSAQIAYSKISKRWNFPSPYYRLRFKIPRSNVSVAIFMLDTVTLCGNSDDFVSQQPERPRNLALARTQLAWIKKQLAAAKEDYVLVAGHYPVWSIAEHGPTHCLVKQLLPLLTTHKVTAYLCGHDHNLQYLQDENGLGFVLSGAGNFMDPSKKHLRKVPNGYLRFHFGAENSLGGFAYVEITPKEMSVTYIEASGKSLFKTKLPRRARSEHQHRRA

For “bovine GlcNAc-phosphotransferase (UDP-N-acetylglucosamine: lysosomal enzyme N-Acetylglucosamine-1-phosphotransferase)”, the “Km as acceptor for transfer of GlcNAc-1-P” value with uteroferrin is “Both uteroferrin and cathepsin D are effectively utilized as acceptors by purified GlcNAc-phosphotransferase with Kms below 20 µM”; with cathepsin D it was “Both uteroferrin and cathepsin D are effectively utilized as acceptors by purified GlcNAc-phosphotransferase with Kms below 20 µM”; in the series with RNAse B it was “the Km was not reached at the solubility limit of the protein (at 600 µM)”.
